Source: patent US20180369375A1 (Merck Sharp & Dohme, published 2018)

What was measured:
[1] = target: T1, human LAG3 (expressed on cells) (human); experiment: cell-based KinExA; human LAG3 on BaF/3 cells; ratio to ADI-12126
T1 construct: also called Hu LAG3; human LAG3 transfectants
T1 chain: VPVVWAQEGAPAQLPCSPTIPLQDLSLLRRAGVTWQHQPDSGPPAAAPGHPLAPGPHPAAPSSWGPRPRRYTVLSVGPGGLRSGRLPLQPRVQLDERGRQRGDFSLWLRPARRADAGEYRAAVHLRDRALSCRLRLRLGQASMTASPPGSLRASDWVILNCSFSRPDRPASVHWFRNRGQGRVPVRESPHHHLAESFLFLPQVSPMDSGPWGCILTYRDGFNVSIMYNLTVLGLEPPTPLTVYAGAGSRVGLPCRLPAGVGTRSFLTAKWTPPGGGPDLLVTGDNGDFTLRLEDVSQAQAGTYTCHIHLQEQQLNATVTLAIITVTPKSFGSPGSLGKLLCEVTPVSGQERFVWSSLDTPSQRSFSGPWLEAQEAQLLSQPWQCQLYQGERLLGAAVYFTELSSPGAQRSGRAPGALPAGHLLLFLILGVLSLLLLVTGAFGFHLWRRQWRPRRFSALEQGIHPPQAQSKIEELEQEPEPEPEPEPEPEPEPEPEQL

[2] = target: T1, human LAG3 (expressed on cells); experiment: cell-based KinExA; BaF/3 cells stably transfected with human LAG3; n = 1
Description: (§1) The affinities of the anti-LAG3 antibodies for human and cynomolgous monkey LAG3 were determined using a cell based Kinetic Exclusion Assay (KinExA). Cell based KinExA can be used to measure the affinity of a molecule for a binding partner on a cell surface (Rathanaswami et al. Analylitical Biochemistry 373(1): 52-60 (2008); Xie et al. J. Immunol. Methods 304 (1-2): 1-14 (2005)). In this case, BaF/3 cells were stably transfected with human or cynomolgus monkey LAG3 proteins. Transfected cells or the parental BaF/3 control cell line were grown to a density of 1.7×10⁶ to 3.2×10⁶ cells per ml at 37° C., 120 RPM, 5% CO₂, in 1×RPMI 1640 media with 10% FBS, 10 ng/ml IL-3, 5 μg/ml puromycin. Cells were concentrated, mixed with 15 pM or 150 pM antibody in cell culture media and incubated 24 to 48 hours at room temperature while rotating at 20 to 30 RPM. Cells were present at a top concentration of 2×10⁷ cells per ml (parental BaF/3 or cynomolgus LAG3 transfectants) or 1×10⁷ cells per ml (human LAG3 transfectants) and diluted in a 2-fold, 18 member series. The cells were pelleted and free antibody in the supernatant was measured using a KinExA 3200 instrument (Sapidyne, Idaho, USA). […] Antibody on the beads was labeled with 1.5 μg/ml Alexa Fluor® 647 conjugated goat anti-human (Fab′)₂ (Jackson ImmunoResearch Laboratories), washed and the fluorescent signal was read all using the KinExA™ 3200. […]

[3] = target: T1, human LAG3 (expressed on cells); experiment: cell-based KinExA; BaF/3 cells stably transfected with human LAG3; n = 2
Description: as §1

[4] = target: T1, human LAG3 (expressed on cells); experiment: cell-based KinExA; BaF/3 cells stably transfected with human LAG3; n = 3
Description: as §1

[5] = target: T1, human LAG3 (expressed on cells); experiment: cell-based KinExA; BaF/3 cells stably transfected with human LAG3; average of n = 1-3
Description: as §1

[6] = target: T2, human LAG3-His tagged recombinant protein (human); experiment: SPR, Biacore T200; antibody captured, human LAG3-His as analyte, 1:1 Langmuir fit; n = 1
T2 construct: also called human LAG3-His protein; recombinant human LAG3
Description: (§2) Approximately 4000 RU of […], Fragment Specific (Jackson ImmunoResearch Catalog #115-006-071, Lot 81313) was immobilized via amine coupling chemistry onto a Series S CM4 sensor chip, catalog number BR-1005-34. Human anti-human LAG3 clones were injected over the immobilized anti-human surfaces at 1 ug/mL for a capture level of 40 RU. HBS-EP+ buffer (BR-1006-69) was used as the running buffer with a flow rate of 30 μL/min.
(§3) Varying concentrations of human LAG3-His protein ranging from 0.15 nM to 18.8 nM, at a flow rate of 40 μL/min were injected over the antibody surfaces. Following each injection cycle, the Series S CM4 chip surface was regenerated using one six second injection of 10 mM Glycine pH 1.5 solution followed by an injection of 12.5 mM NaOH solution at a flow rate of 60 μL/min.
(§4) Background subtraction binding sensorgrams were used for analyzing the rate constant of association (kₐ) and dissociation (kd), and the equilibrium dissociation constant KD. The resulting data sets were fitted with a 1:1 Langmuir Binding Model using the Biacore T200 evaluation software (version 2.0).
Target sequence in this assay (P18627 23-450): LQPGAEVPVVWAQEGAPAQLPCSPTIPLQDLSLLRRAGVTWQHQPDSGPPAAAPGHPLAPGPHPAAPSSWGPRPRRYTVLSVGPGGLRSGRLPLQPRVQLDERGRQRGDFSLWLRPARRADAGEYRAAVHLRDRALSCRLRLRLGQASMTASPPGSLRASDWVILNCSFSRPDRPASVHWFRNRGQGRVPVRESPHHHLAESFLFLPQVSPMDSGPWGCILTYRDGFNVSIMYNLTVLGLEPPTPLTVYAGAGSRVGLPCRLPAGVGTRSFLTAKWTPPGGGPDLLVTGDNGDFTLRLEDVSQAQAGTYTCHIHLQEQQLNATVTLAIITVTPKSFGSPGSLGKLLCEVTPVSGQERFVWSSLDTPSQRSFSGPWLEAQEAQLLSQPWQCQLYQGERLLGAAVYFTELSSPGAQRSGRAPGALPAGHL

[7] = target: T2, human LAG3-His tagged recombinant …; experiment: SPR, Biacore T200; antibody captured, human LAG3-His as analyte, 1:1 Langmuir fit; n = 2
Description: as §2, §3, §4
Target sequence in this assay (P18627 23-450): as above

[8] = target: T2, human LAG3-His tagged recombinant …; experiment: SPR, Biacore T200; antibody captured, human LAG3-His as analyte, 1:1 Langmuir fit; average
Description: as §2, §3, §4
Target sequence in this assay (P18627 23-450): as above

[9] = target: T2, human LAG3-His tagged recombinant …; experiment: SPR, Biacore T200; fold against the parental antibody, as printed in this row
Description: as §2, §3, §4

Binder	KD/KD ref (ref = ADI-12126) [1]	Kd [2]	Kd [3]	Kd [4]	Kd [5]	Kd [6]	Kd [7]	Kd [8]	Fold weaker than ADI-12126 (M57, M115) IgG4 S228P/Kappa [9]
ADI-12126 M57G/M115L (antibody, V domains shown) VH: not shown VL: EIVLTQSPATLSLSPGERATLSCRASQSVSSYLAWYQQKPGQAPRLLIYDASNRATGIPARFSGSGSGTDFTLTISSLEPEDFAVYYCQQASIWPLTFGGGTKVEIKR	0.8	0.015 nM	0.025 nM	0.013 nM	0.018 nM				
ADI-12126 (Q1E, M57A, M115L) IgG4 S228P/Kappa (antibody, V domains shown) VH: EVQLVQSGAEVKKPGASVKVSCKASGYTFTGYYMHWVRQAPGQGLEWMGWINANSGATNYAQKFQGRVTMTRDTSISTAYMELSRLRSDDTAVYYCARDIYDSSDQLNVWGQGTLVTVSS VL: EIVLTQSPATLSLSPGERATLSCRASQSVSSYLAWYQQKPGQAPRLLIYDASNRATGIPARFSGSGSGTDFTLTISSLEPEDFAVYYCQQASIWPLTFGGGTKVEIKR						0.013 nM	0.013 nM	0.013 nM	
ADI-12126 (Q1E, M57S, M115L) IgG4 S228P/Kappa (antibody, V domains shown) VH: EVQLVQSGAEVKKPGASVKVSCKASGYTFTGYYMHWVRQAPGQGLEWMGWINANSGSTNYAQKFQGRVTMTRDTSISTAYMELSRLRSDDTAVYYCARDIYDSSDQLNVWGQGTLVTVSS VL: EIVLTQSPATLSLSPGERATLSCRASQSVSSYLAWYQQKPGQAPRLLIYDASNRATGIPARFSGSGSGTDFTLTISSLEPEDFAVYYCQQASIWPLTFGGGTKVEIKR						0.134 nM	0.119 nM	0.127 nM	
ADI-12126 (Q1E, M57V, M115L) IgG4 S228P/Kappa (antibody, V domains shown) VH: EVQLVQSGAEVKKPGASVKVSCKASGYTFTGYYMHWVRQAPGQGLEWMGWINANSGVTNYAQKFQGRVTMTRDTSISTAYMELSRLRSDDTAVYYCARDIYDSSDQLNVWGQGTLVTVSS VL: EIVLTQSPATLSLSPGERATLSCRASQSVSSYLAWYQQKPGQAPRLLIYDASNRATGIPARFSGSGSGTDFTLTISSLEPEDFAVYYCQQASIWPLTFGGGTKVEIKR						0.282 nM	0.25 nM	0.266 nM	
ADI-12126 (Q1E, M57T, M115L) IgG4 S228P/Kappa (antibody, V domains shown) VH: EVQLVQSGAEVKKPGASVKVSCKASGYTFTGYYMHWVRQAPGQGLEWMGWINANSGTTNYAQKFQGRVTMTRDTSISTAYMELSRLRSDDTAVYYCARDIYDSSDQLNVWGQGTLVTVSS VL: EIVLTQSPATLSLSPGERATLSCRASQSVSSYLAWYQQKPGQAPRLLIYDASNRATGIPARFSGSGSGTDFTLTISSLEPEDFAVYYCQQASIWPLTFGGGTKVEIKR						0.066 nM	0.065 nM	0.066 nM	
ADI-12126 (Q1E, M57G, M115L) IgG4 S228P/Kappa (antibody, V domains shown, The parental residues are Q1, M57, M115) VH: not shown VL: EIVLTQSPATLSLSPGERATLSCRASQSVSSYLAWYQQKPGQAPRLLIYDASNRATGIPARFSGSGSGTDFTLTISSLEPEDFAVYYCQQASIWPLTFGGGTKVEIKR						0.011 nM	0.01 nM	0.01 nM	4.6 fold
ADI-12126 (Q1E, M57Y, M115L) IgG4 S228P/Kappa (antibody, V domains shown) VH: EVQLVQSGAEVKKPGASVKVSCKASGYTFTGYYMHWVRQAPGQGLEWMGWINANSGYTNYAQKFQGRVTMTRDTSISTAYMELSRLRSDDTAVYYCARDIYDSSDQLNVWGQGTLVTVSS VL: EIVLTQSPATLSLSPGERATLSCRASQSVSSYLAWYQQKPGQAPRLLIYDASNRATGIPARFSGSGSGTDFTLTISSLEPEDFAVYYCQQASIWPLTFGGGTKVEIKR						0.032 nM	0.034 nM	0.033 nM	
ADI-12126 M57A/M115L (antibody, V domains shown) VH: EVQLVQSGAEVKKPGASVKVSCKASGYTFTGYYMHWVRQAPGQGLEWMGWINANSGATNYAQKFQGRVTMTRDTSISTAYMELSRLRSDDTAVYYCARDIYDSSDQLNVWGQGTLVTVSS VL: EIVLTQSPATLSLSPGERATLSCRASQSVSSYLAWYQQKPGQAPRLLIYDASNRATGIPARFSGSGSGTDFTLTISSLEPEDFAVYYCQQASIWPLTFGGGTKVEIKR	0.9	0.017 nM	0.03 nM	0.017 nM	0.021 nM				
